The values below are quoted from earlier work in EP4803095A2, “FORMULATIONS OF GLUCAGON-LIKE-PEPTIDE-2 (GLP-2) ANALOGUES” (Zealand Pharma A/S, priority 2018, dated 2026).

Read-outs that look alike come from different tables or passages of the source.

For the series the following is noted: for half-life in humans: background art.

As to “GLP-2 [3-33]: truncated GLP-2 [3-33] (DGSFSDEMNTILDNLAARDFINWLIQTKITD; Glucagon-like peptide 2; UniProt P01275 148-178, looked up, fragment)”, the half-life in humans was around 27 min.
On to “Hy-His-Ala-Asp-Gly-Ser-Phe-Ser-Asp-Glu-Met-Asn-Thr-Ile-Leu-Asp-Asn-Leu-Ala-Ala-Arg-Asp-Phe-Ile-Asn-Trp-Leu-Ile-Gln-Thr-Lys-Ile-Thr-Asp-OH [GLP-2 [1-33]]”, for which the half-life in humans result is reported as “around 7 minutes”. The half-life in humans entry (listed as native GLP-2) is on record as “seven”.
Regarding “teduglutide: GLP-2 analogue containing Gly substitution at position 2”, the half-life result (in vivo) was “about two”.
